{"source": "patent US20230151068A1", "molecular_target": "biotinylated His-Avi-TEAD (194-411) (UniProt P28347)", "assay": "SPR, biotinylated TEAD immobilized on the chip, Siderocalin-YAP as analyte"}
{"substance": "Siderocalin-fused YAP (50-171) (from UniProt P80188 21-198; P46937 50-171)", "values": [{"measurement": "Kd", "value": 570, "unit": "nM"}]}
